Assays:
[1] = target: the molecule itself; assay: AUC; sedimentation equilibrium, 20 °C, 20 mM NaH2PO4 pH 7.0, 150 mM NaCl; OBD 10-60 μM at 22,000 rpm, OD 10-100 μM at 13,000 rpm; single-species model
[2] = target: the molecule itself; assay: SAXS; free RepB in solution at 20, 40 and 83 μM RepB6 (12.1, 5.8 and 2.9 mg/mL); 10 mM TRIS pH 8.5, 5 mM EDTA, 1.0 M KCl

Row | Protein | stoichiometry N [1] | stoichiometry N [2]
1 | RepB OD (oligomerisation domain, residues 127 to 210) (domain or fragment, UniProt P13921 127-210, looked up, RepB of plasmid pMV158 (Streptococcus agalactiae), oligomerisation domain, residues 127 to 210; theoretical mass of the hexamer 58,300 Da; also called OD-only construct; OD hexamer; source: Escherichia coli M15, purified (Ni-NTA agarose), His-tag removed with TAGZyme; not shown: His6, N-terminal, cleaved) DIDRYVTLDVEEKTELFNVVVSLIRAYTLQNIFDLYDFIDENGETYGLTINLVNEVIAGKTGFMKLLFDGAYQRSKRGTKNEER | 6 | 
2 | RepB, rolling-circle replication initiator protein of plasmid pMV158 (hexamer) (natural protein, UniProt P13921 1-210, looked up, RepB, replication initiator protein encoded by the promiscuous plasmid pMV158, originally isolated from Streptococcus agalactiae; 24 kDa polypeptide; OBD (N-terminal) and OD (C-terminal) domains; the OD construct ends at residue 210; The final model of 4U87 comprises residues 3-204 of three protomers in the asymmetric unit; also called RepB6; RepB hexamer) MAKEKARYFTFLLYPESIPSDWELKLETLGVPMAISPLHDKDKSSIKGQKYKKAHYHVLYIAKNPVTADSVRKKIKLLLGEKSLAMVQVVLNVENMYLYLTHESKDAIAKKKHVYDKADIKLINNFDIDRYVTLDVEEKTELFNVVVSLIRAYTLQNIFDLYDFIDENGETYGLTINLVNEVIAGKTGFMKLLFDGAYQRSKRGTKNEER |  | 6

Reference: publication PMC4753449, “Conformational plasticity of RepB, the replication initiator protein of promiscuous streptococcal plasmid pMV158” (Scientific Reports, 2016)
